Reference: article PMC6083498, “F-CphI represents a new homing endonuclease family using the Endo VII catalytic motif”

Target: T1, F-CphI (cyanophage S-PM2, UniProt Q7Y4H4 1-142)
T1 sequence: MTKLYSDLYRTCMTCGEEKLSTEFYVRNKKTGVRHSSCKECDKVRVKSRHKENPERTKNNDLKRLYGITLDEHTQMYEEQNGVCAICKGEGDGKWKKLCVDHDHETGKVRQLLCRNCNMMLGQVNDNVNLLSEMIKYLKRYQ
Test: EMSA; no Mg2+ added; Kd value only in figure; EMSA: 10 mM Tris-HCl pH 8.0, 2% glycerol, 2 ug/ml poly-dIdC, 2 ug/ml BSA, 0.2 mM DTT, on ice 15 min, 2 nM labeled DNA; 8% native PAGE in 1X TBE
Conditions: protein: recombinant; tags: C-terminal Myc-His (pBAD/Myc-HisB; in frame with downstream His-tag); label: 5'-32P on top strand; blunt

B1: SBM4-60Top duplex (dsDNA)
DNA 1: TGGTCTGGGTATGGAAGTGATGCACGAGCGCAACGCTCACAACTTCCCTCTCGACCTTGC
DNA 2: GCAAGGTCGAGAGGGAAGTTGTGAGCGTTGCGCTCGTGCATCACTTCCATACCCAGACCA
B1: binds.
